{"source": "paper PMC9891525", "about": "(PLOS Pathogens, 2023)", "biological_target": "SARS-CoV-2 WT spike RBD (SARS-CoV-2, wild type, UniProt P0DTC2)", "test": "SPR; Biacore 2000; […]; 45 μL/min, 180 s binding, […] dissociation; 1:1 binding model", "settings": "both partners purified", "data": [{"binder": "purified monoclonal antibody d7 (S97Y, D54I, N57H) (antibody, V domains shown) VH: QVQLVESGGGVVQPGRSLRLSCAASGFTFSNYAMYWVRQAPGKGLEWVAVISYIGSHKYYADSVKGRFTISRDNSKNTLYLQMNSLRTEDTAVYYCASGSDYGDYLLVYWGQGTLVTVSS VL: QSALTQPASVSGSPGQSITISCTGTSSDVGGYNYVSWYQQHPGKAPKLMIYDVSKRPSGVSNRFSGSKSGNTASLTISGLQSEDEADYYCNSLTSIYTWVFGGGTKLTVL", "values": [{"measurement": "Kd", "value": 0.15, "unit": "nM"}, {"measurement": "other", "value": 3, "unit": "times"}]}, {"binder": "purified monoclonal antibody A3 (N57A, L106N) (antibody, V domains shown) VH: QVQLVESGGGVVQPGRSLRLSCAASGFTFSNYAMYWVRQAPGKGLEWVAVISYDGSAKYYADSVKGRFTISRDNSKNTLYLQMNSLRTEDTAVYYCASGSDYGDYNLVYWGQGTLVTVSS VL: QSALTQPASVSGSPGQSITISCTGTSSDVGGYNYVSWYQQHPGKAPKLMIYDVSKRPSGVSNRFSGSKSGNTASLTISGLQSEDEADYYCNSLTSISTWVFGGGTKLTVL", "values": [{"measurement": "Kd", "value": 0.17, "unit": "nM"}, {"measurement": "other", "value": 3, "unit": "times"}]}, {"binder": "purified monoclonal antibody d9 (S97Y, D54L, N57H) (antibody, V domains shown) VH: QVQLVESGGGVVQPGRSLRLSCAASGFTFSNYAMYWVRQAPGKGLEWVAVISYLGSHKYYADSVKGRFTISRDNSKNTLYLQMNSLRTEDTAVYYCASGSDYGDYLLVYWGQGTLVTVSS VL: QSALTQPASVSGSPGQSITISCTGTSSDVGGYNYVSWYQQHPGKAPKLMIYDVSKRPSGVSNRFSGSKSGNTASLTISGLQSEDEADYYCNSLTSIYTWVFGGGTKLTVL", "values": [{"measurement": "Kd", "value": 0.17, "unit": "nM"}, {"measurement": "other", "value": 3, "unit": "times"}]}]}
